The target of series [1] is Nipah virus (Malaysia strain) W protein, N-terminally hexahistidine tagged (from pDEST17OI/NiVW) (Nipah virus (Malaysia strain)) (UniProt P0C1C7). The experiment in a line: SEC. (Size exclusion chromatography separates by hydrodynamic size, large species first.)
The target is the same in series [2]. Kind of series: MALDI-TOF MS of the intact protein.
Series [3] concerns the molecule itself. Kind of series: MALDI-TOF MS of the intact protein.

On to “Nipah virus (Malaysia strain) W protein, N-terminally hexahistidine tagged (from pDEST17OI/NiVW) (from UniProt P0C1C7 1-450) (natural protein)”, for which the stoichiometry N in series [1] and in series [2] was 2 throughout.

B1: Hendra virus W protein, N-terminally hexahistidine tagged (from pDEST17OI/HeVW) (natural protein)
chain: MDKLDLVNDGLDIIDFIQKNQKEIQKTYGRSSIQQPSTKDRTRAWEDFLQSTSGEHEQAEGGMPKNDGGTEGRNVEDLSSVTSSDGTIGQRVSNTRAWAEDPDDIQLDPMVTDVVYHDHGGECTGHGPSSSPERGWSYHMSGTHDGNVRAVPDTKVLPNAPKTTVPEEVREIDLIGLEDKFASAGLNPAAVPFVPKNQSTPTEEPPVIPEYYYGSGRRGDLSKSPPRGNVNLDSIKIYTSDDEDENQLEYEDEFAKSSSEVVIDTTPEDNDSINQEEVVGDPSDQGLEHPFPLGKFPEKEETPDVRRKDSLMQDSCKRGGVPKRLPMLSEEFECSGSDDPIIQELEREGSHPGGSLRLREPPQSSGNSRNQPDRQLKTGDAASPGGVQRPGTPMPKSRIMPIKKGAQTRSLNMLGRKTCLGRRVVQPGMFADYPPTKKARVLLRRMSN
notes: not shown: His6, N-terminal, kept
Turning to B1, in series [3], the stoichiometry N (usually the number of molecules, sites or subunits per partner or assembly) is 2.

The record behind these values is publication PMC8780864, “Experimental Evidence of Intrinsic Disorder and Amyloid Formation by the Henipavirus W Proteins” (International Journal of Molecular Sciences, 2022).
